# Data reported in US20260234290.
# How the values were obtained:
# Assay in all cases: BLI
# 3B11 Fab = details: 2 uM Fab; RT; described as weak binding
# 3B12 Fab = details: 2 uM Fab; RT; described as weak binding
# 2B12 Fab = details: 2 uM Fab; RT; weak binder; printed as second 3B12 in Table 4, 2B12 in text
# 2C11 Fab = details: 2 uM Fab; RT; weak binder
# 3C8 Fab = details: 2 uM Fab; RT; described as weak binding
sequence,measurement,setting,value
CATTTCCCGTAAATC (double strand) [CS3D (cyclic STAT3 decoy)],koff,3B11 Fab,0.205 s⁻¹
same,koff,3B12 Fab,0.0764 s⁻¹
same,koff,2B12 Fab,0.37 s⁻¹
same,koff,2C11 Fab,0.419 s⁻¹
same,koff,3C8 Fab,0.277 s⁻¹
